The text below walks through data of doi:10.64898/2025.12.24.696337, “A Broadly Conserved Protective Epitope on the Lyme Disease Vaccine Antigen, OspA” (bioRxiv, 2025).

Broadly, the Kd is a measure of binding affinity in units of concentration.

Substitutions are numbered along the chain they refer to.

Test [1] deals with T1, Native OspA serotype 3 on B. garinii PBr cells (Borreliella garinii PBr, UniProt B8F1J0, strain).
T1 construct: OspA serotype 3 of B. garinii PBr, native on the bacterial surface; also called native OspA ST3; source: endogenous, B. garinii PBr cells
Nature of the test: flow cytometry on cells; native Bbsl strains (primary isolates, ST1-7) probed with mAb. Conditions: one partner purified. On the technique in general: A flow cytometer gives signals particle by particle.

The target of test [2] is T2, Recombinant OspAST1 (residues 18-273) from B. burgdorferi B31 (Borreliella burgdorferi B31, UniProt P0CL66).
T2 construct: Outer surface protein A (OspA) serotype 1, B. burgdorferi B31, residues 18 to 273; Used for the crystal structures; also called OspA (18-273); outer surface protein A serotype 1; not shown: His10, N-terminal, cleaved; SUMO, N-terminal, cleaved
Nature of the test: BLI; Octet RED96e; mAb captured on AHC sensors, three-fold dilution series of OspA (21.58 nM to 0.089 nM); PBS, 0.1% BSA, 0.01% Tween20; global 1:1 model. Conditions: both partners purified. Background: BLI is a label-free optical method that tracks binding on a fibre tip over time.

Test [3] addresses T3, OspA serotype 2 (B. afzelii PKo allele) on B. burgdorferi HB19-R1 reporter strain (Borreliella afzelii PKo allele, in B. …, UniProt P0A3N7).
T3 construct: OspA serotype 2, allele of B. afzelii PKo; also called OspAST2; OspA ST2; source: expressed from a reporter plasmid in B. burgdorferi HB19-R1, on live cells
The test can be described thus: flow cytometry on cells; live B. burgdorferi HB19-R1 reporter strains expressing OspA ST1-7 probed with 10 µg/ml mAb, then Alexa 647-labeled goat anti-human IgG. Particulars: one partner purified.

Test [4] has as its target T4, OspA serotype 3 (B. garinii PBr allele) on B. burgdorferi HB19-R1 reporter strain (Borreliella garinii PBr allele, in B. …, UniProt B8F1J0, strain).
T4 construct: OspA serotype 3, allele of B. garinii PBr; also called OspAST3; OspA ST3; source: expressed from a reporter plasmid in B. burgdorferi HB19-R1, on live cells
Described as above. Particulars: one partner purified.

The target in test [5] is T5, OspA serotype 4 (B. bavariensis PBi allele) on B. burgdorferi HB19-R1 reporter strain (Borreliella bavariensis PBi allele, in …, UniProt Q6LBF1, strain).
T5 construct: OspA serotype 4, allele of B. bavariensis PBi; also called OspAST4; OspA ST4; source: expressed from a reporter plasmid in B. burgdorferi HB19-R1, on live cells
The description is as above. Conditions: one partner purified.

Test [6] concerns the target T6, Recombinant OspA serotype 1 (provided by Moderna) (Borreliella burgdorferi, strain not …, UniProt P0CL66).
T6 construct: OspA serotype 1; also called recombinant OspA ST1; ST 1; source: E. coli, purified; provided by Dr. Meredith Finn (Moderna)
The test can be described thus: microsphere immunoassay (MIA); recombinant OspA ST1-7 coupled to Magplex-C microspheres; serial dilutions of mAb in PBS, 2% BSA, pH 7.4, 1 h at room temperature; PE goat anti-human IgG Fc. Particulars: both partners purified.

T3 sequence (P0A3N7 17-273): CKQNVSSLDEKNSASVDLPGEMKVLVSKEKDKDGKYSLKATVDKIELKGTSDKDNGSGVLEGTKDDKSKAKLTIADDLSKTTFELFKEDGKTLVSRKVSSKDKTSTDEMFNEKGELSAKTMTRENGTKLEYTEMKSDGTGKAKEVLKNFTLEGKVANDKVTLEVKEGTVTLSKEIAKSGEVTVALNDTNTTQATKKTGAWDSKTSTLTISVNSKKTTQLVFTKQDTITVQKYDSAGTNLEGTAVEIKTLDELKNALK
T6 sequence (P0CL66 17-273): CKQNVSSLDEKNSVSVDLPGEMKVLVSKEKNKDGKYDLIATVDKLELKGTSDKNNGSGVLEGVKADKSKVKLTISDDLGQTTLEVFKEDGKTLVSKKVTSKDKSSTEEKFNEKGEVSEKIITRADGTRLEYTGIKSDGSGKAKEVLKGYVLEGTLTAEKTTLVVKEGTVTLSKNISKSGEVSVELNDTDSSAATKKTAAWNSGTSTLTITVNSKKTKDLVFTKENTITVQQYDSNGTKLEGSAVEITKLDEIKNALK

B1: 857-2, recombinant human monoclonal IgG1 (antibody, V domains shown)
VH: EVQLVQSGEEVKKPGESLKISCKGSGYKFSSYWIGWVRQMPGKGLEWMGIIFPGDSDKRYSPSFQGQVTISADKSISTVYLQWSSLKASDTAMYYCARHITTHTYRGFFDFWGQGTLVTVSS
VL: AIQLTQSPSSLSASVGDRVTITCRASQDISSALAWYQQKPGKAPKLLIYDVSSLESGVPSRFSGSGSGTDFTLTISSLQPEDFATYYCQQFNGYPHRLTFGGGTKVEIK
notes: rest human IgG1 constant region; IgG1; VH germline HV5-51, VL germline KV1-13; also called mAb 857-2; Class I Bin 1 mAb; source: Expi293, transiently transfected with VH and VL plasmids, purified (Protein A)
Turning to B1, in test [1], the binding result is on record as “binds”. The Kd in test [2] came to 0.3 nM. For the same molecule, the MFI in test [3], in test [4] and in test [5] was > 4000 throughout.

B2: 221-5, recombinant human monoclonal IgG1 (antibody, V domains shown)
VH: EVQLVQSGAEVKKPGESLKISCKGSGYSFTSYWIGWVRQMPGKGLEWMGIIYPGDSDTRYSPSFQGQVTISADKSISTAYLQWSSLKASDTAMYYCARHLGIDYFFGMDVWGQGTTVTVSS
VL: EIVLTQSPATLSLSPGERATLSCRASQSVSSYLAWYQQKPGQAPRLLIYDASTRDTGIPARFSGSGSGTDFTLTISSLEPEDFAVYYCQHHSNWYTFGQGTKLEIK
notes: rest human IgG1 constant region; IgG1; VH unmutated from germline HV5-51, VL derived from KV3-11; also called Class I Bin 1 mAb; source: Expi293, transiently transfected with VH and VL plasmids, purified (Protein A)
Turning to B2, in test [2], the Kd amounted to 0.52 nM. Moreover, the MFI in test [3], in test [4] and in test [5] was > 4000 each time. The binding result in test [6] was “binds”.

B3: 221-11, recombinant human monoclonal IgG1 (antibody, V domains shown)
VH: EVQLVQSGAEVKKPGESLKISCQSSGYRFTIYWIGWVRQMPGKGLEWMGIIWPGDSDTRYSPSFQGQVTISADKSISTAYLQWSSLKASDTAMYYCVRGIGRYSNWFLDYWGQGTLVTVSS
VL: AIQLTQSPSSLSASVGDRVTITCRASQGFSSALAWYQQKPGKAPKLLIYDASSLESGVPSRFSGSGSGTDFTLTISSLQPEDFATYYCQQFNSYPLTFGGGTKVEIK
notes: rest human IgG1 constant region; IgG1; VH germline HV5-51, VL germline KV1-13; also called Class II Bin 1 mAb; source: Expi293, transiently transfected with VH and VL plasmids, purified (Protein A)
For the molecule B3, the Kd in test [2] stood at 0.35 nM. The binding result in test [4] is “binds”.

B4: 227-1, recombinant human monoclonal IgG1 (antibody, V domains shown)
VH: EVQLVQSGAEVKMPGESLKISCEVSGYSFTSYWIGWVRQMPGKGLEWMGIIYPGDSDTRYSPSFQGQVTISADKSISTAYLQWSSLKASDTAMYYCTRSISRSGPGFSLSWFFDYWGQGTLVTVSS
VL: B3 VL with F29I, S31N, S56R, S67F, T85I, S93G, Y94F, L96N, G100Q, K103R
notes: rest human IgG1 constant region; IgG1; VH germline HV5-51, VL germline KV1-13; also called Class III Bin 1 mAb; source: Expi293, transiently transfected with VH and VL plasmids, purified (Protein A)
Take B4: the Kd in test [2] is 1.7 nM.
